In patent US20030092037A1, “Elk1 phosphorylation related gene” (priority 2001, published 2003):

System: MAP kinase cascade activation
Experiment: Reporter activity reflecting MAP kinase cascade activation, corrected using an internal control (Elk1-GAL4 luciferase reporter in 293-EBNA cells)
Assay type: cell-based, human
Settings: for Reporter activity corrected with internal control, as a factor of null vector (S/B value): 293-EBNA cells, 24 hours

B1: 30 (protein, listed as Homo sapiens)
chain: MDARWWAVVVLAAFPSLGAGGETPEAPPESWTQLWFFRFVVNAAGYASFMVPGYLLVQYFRRKNYLETGRGLCFPLVKACVFGNEPKASDEVPLAPRTEAAETTPMWQALKLLFCATGLQVSYLTWGVLQERVMTRSYGATATSPGERFTDSQFLVLMNRVLALIVAGLSCVLCKQPRHGAPMYRYSFASLSNVLSSWCQYEALKFVSFPTQVLAKASKVIPVMLMGKLVSRRSYEHWEYLTATLISIGVSMFLLSSGPEPRSSPATTLSGLFTVGSLLEQGALLEGTRFMGRHSEFAAHALLLSICSACGQLFIFYTIGQFGAAVFTIIMTLRQAFAILLSCLLYGHTVTVVGGLGVAVVFAALLLRVYARGRLKQRGKKAVPVESPVQKV
Reporter activity corrected with internal control, as a factor of null vector (S/B value) (25 ng/well expression plasmid): 4.2
Reporter activity corrected with internal control, as a factor of null vector (S/B value) (50 ng/well expression plasmid): 6.3
Reporter activity corrected with internal control, as a factor of null vector (S/B value) (100 ng/well expression plasmid): 7.6
Dependence of corrected reporter activity on amount of expression plasmid (plasmid 12.5 ng, 25 ng, 50 ng and 100 ng): increases that were dependent on the amount of expression plasmid
